Test results: the RNAGym collection of RNA variant scans (doi:10.1093/molbev/msab373)

B1: Azoarcus group I ribozyme (parent)
chain: GUGCCUUGCGCCGGGAAACCACGCAAGGGAUGGUGUCAAAUUCGGCGAAACCUAAGCGCCCGCCCGGGCGUAUGGCAACGCCGAGCCAAGCUUCGGCGCCUGCGCCGAUGAAGGUGUAGAGACUAGACGGCACCCACCUAAGGCAAACGCUAUGGUGAAGGCAUAGUCCAGGGAGUGGCGAAAGUCACACAAACCGG

Variants of: B1
Assay: reverse-splicing fitness (ratio to wild type); higher = more active; in vitro selection; Mg2+ level not given
Summary of the method: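 An in vitro group I ribozyme library with randomized positions was T7-transcribed and gel-purified. In triplicate, 10 pmol RNA in EPPS pH 7.5 was reacted with 50 pmoles of a 30-nt RNA substrate for 1 h at 37 °C across several added MgCl2 levels (1–48 mM), then stopped with EDTA. Products were reverse transcribed from a substrate-complementary primer, PCR-amplified and sequenced (HiSeq 4000). Fitness is a variant's read proportion after selection over that before, normalised to wild type.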
In the case of C82A A111G A120C C169G U176G, the reverse-splicing fitness is reported as 0.00548. In the case of C82A A111G A120C C169G U176C, the reverse-splicing fitness is reported as 0.0237. C82A A111G A120C A145U C150U U176C showed a reverse-splicing fitness of 0.0248. C82A A111G A120C A145U C150U U176G showed a reverse-splicing fitness of 0.00709. In the case of C82A A111G A120C A145U C150U U176A, the reverse-splicing fitness is reported as 0.0145. Work on C82A A111G A120G A145G C150G U176A yielded a reverse-splicing fitness of 0.00684. Variant C82A A111G A120G A145G C150G U176C has a reverse-splicing fitness of 0.00999. Variant C82A A111G A120G A145G C150G U176G has a reverse-splicing fitness of 0.00568. Variant C82A A111G A120G A145G C169U U176G has a reverse-splicing fitness of 0.00492. C82A A111G A120G A145G C169U U176C showed a reverse-splicing fitness of 0.0173. For C82A A111G A120G A145G C169U U176A, the reverse-splicing fitness was 0.019. Variant C82A A111G A120G A145U C150A C169U has a reverse-splicing fitness of 0.00754. Work on C82A A111G A120G A145U C150A C169A yielded a reverse-splicing fitness of 0.00837. For C82A A111G A120G A145U C150A C169G, the reverse-splicing fitness was 0.00871. Work on C82A A111G A120G A145G C150A U176G yielded a reverse-splicing fitness of 0.00899. C82A A111G A120G A145G C150A U176C gave a reverse-splicing fitness of 0.0203. With C82A A111G A120G A145G C150A U176A the reverse-splicing fitness was 0.0103. Variant C82A A111G A120G A145G C150U C169G has a reverse-splicing fitness of 0.0113. Variant C82A A111G A120G A145G C150U C169U has a reverse-splicing fitness of 0.011. C82A A111G A120G A145G C150U C169A gave a reverse-splicing fitness of 0.0119. For C82A A111G A120C A145G C150G C169A U176C, the reverse-splicing fitness was 0.0137. With C82A A111G A120C A145G C150G C169A U176A the reverse-splicing fitness was 0.0145. C82A A111G A120C A145G C150G C169A U176G gave a reverse-splicing fitness of 0.00827. For C82A A111G A120G A145C C150A U176G, the reverse-splicing fitness was 0.00509. C82A A111G A120G A145C C150A U176A showed a reverse-splicing fitness of 0.0107. C82A A111G A120G A145C C150A U176C showed a reverse-splicing fitness of 0.00922. Work on C82A A111G A120G A145G C150U C169G U176A yielded a reverse-splicing fitness of 0.0157. C82A A111G A120G A145G C150U C169G U176C showed a reverse-splicing fitness of 0.0176. In the case of C82A A111G A120G A145G C150U C169G U176G, the reverse-splicing fitness is reported as 0.00529. For C82A A111G A120G A145C C150G C169G U176C, the reverse-splicing fitness was 0.00788. C82A A111G A120G A145C C150G C169G U176A showed a reverse-splicing fitness of 0.00955. Variant C82A A111G A120G A145C C150G C169G U176G has a reverse-splicing fitness of 0.0049. Work on C82A A111G A120C A145U C150G C169U U176G yielded a reverse-splicing fitness of 0.00564. Work on C82A A111G A120C A145U C150G C169U U176C yielded a reverse-splicing fitness of 0.0102. In the case of C82A A111G A120C A145U C150G C169U U176A, the reverse-splicing fitness is reported as 0.00666. C82A A111G A120C C150G U176G gave a reverse-splicing fitness of 0.00391. Work on C82A A111G A120C C150G U176A yielded a reverse-splicing fitness of 0.0064. C82A A111G A120C C150G U176C showed a reverse-splicing fitness of 0.00892. With C82A A111G A120C C150A C169A U176C the reverse-splicing fitness was 0.0231. Work on C82A A111G A120C C150A C169A U176G yielded a reverse-splicing fitness of 0.00754. Variant C82A A111G A120C C150A C169A U176A has a reverse-splicing fitness of 0.0277. Variant C82A A111G A120C A145U C150A C169U U176G has a reverse-splicing fitness of 0.00664. Work on C82A A111G A120C A145U C150A C169U U176C yielded a reverse-splicing fitness of 0.0123. Variant C82A A111G A120C A145U C150A C169U U176A has a reverse-splicing fitness of 0.0152. C82A A111G A120C C150G C169A U176G showed a reverse-splicing fitness of 0.00791. With C82A A111G A120C C150G C169A U176C the reverse-splicing fitness was 0.0139. C82A A111G A120C C150G C169A U176A showed a reverse-splicing fitness of 0.0116. C82A A111G A120G A145G C150G C169A gave a reverse-splicing fitness of 0.00897. With C82A A111G A120G A145G C150G C169U the reverse-splicing fitness was 0.0091. In the case of C82A A111G A120G A145G C150G C169G, the reverse-splicing fitness is reported as 0.00754. In the case of C82A A111G A120C C169A, the reverse-splicing fitness is reported as 0.00875. C82A A111G A120C C169U showed a reverse-splicing fitness of 0.0139. In the case of C82A A111G A120C C169G, the reverse-splicing fitness is reported as 0.00888. C82A A111G A120C A145U U176G showed a reverse-splicing fitness of 0.00629. In the case of C82A A111G A120C A145U U176C, the reverse-splicing fitness is reported as 0.0247. C82A A111G A120C A145U U176A showed a reverse-splicing fitness of 0.0171. In the case of C82A A111G A120C A145G, the reverse-splicing fitness is reported as 0.0444. For C82A A111G A120C A145U, the reverse-splicing fitness was 0.0424. Work on C82A A111G A120G A145C C150G C169A U176A yielded a reverse-splicing fitness of 0.00923. Work on C82A A111G A120G A145C C150G C169A U176G yielded a reverse-splicing fitness of 0.00564. In the case of C82A A111G A120G A145C C150G C169A U176C, the reverse-splicing fitness is reported as 0.00743. With C82A A111G A120G A145G C150A C169G U176G the reverse-splicing fitness was 0.00592. Work on C82A A111G A120G A145G C150A C169G U176A yielded a reverse-splicing fitness of 0.0194. C82A A111G A120G A145G C150A C169G U176C showed a reverse-splicing fitness of 0.0239. In the case of C82A A111G A120C C150A C169G U176C, the reverse-splicing fitness is reported as 0.0256. With C82A A111G A120C C150A C169G U176G the reverse-splicing fitness was 0.00675. With C82A A111G A120C C150A C169G U176A the reverse-splicing fitness was 0.0219. Variant C82A A111G A120G A145C C150U C169G has a reverse-splicing fitness of 0.00885. For C82A A111G A120G A145C C150U C169U, the reverse-splicing fitness was 0.0082. C82A A111G A120G A145C C150U C169A showed a reverse-splicing fitness of 0.00986. Variant C82A A111G A120C A145G C150U C169U has a reverse-splicing fitness of 0.0147. Variant C82A A111G A120C A145G C150U C169G has a reverse-splicing fitness of 0.0101. With C82A A111G A120C A145G C150U C169A the reverse-splicing fitness was 0.012. Work on C82A A111G A120G A145C C150U U176C yielded a reverse-splicing fitness of 0.0104. Variant C82A A111G A120G A145C C150U U176A has a reverse-splicing fitness of 0.00898. C82A A111G A120G A145C C150U U176G gave a reverse-splicing fitness of 0.00504. In the case of C82A A111G A120C A145U C150A U176A, the reverse-splicing fitness is reported as 0.012. In the case of C82A A111G A120C A145U C150A U176G, the reverse-splicing fitness is reported as 0.00739. C82A A111G A120C A145U C150A U176C gave a reverse-splicing fitness of 0.0198. With C82A A111G A120G A145C C169U U176A the reverse-splicing fitness was 0.0193. Work on C82A A111G A120G A145C C169U U176C yielded a reverse-splicing fitness of 0.0129. C82A A111G A120G A145C C169U U176G showed a reverse-splicing fitness of 0.00388. Variant C82A A111G A120G A145G C150G has a reverse-splicing fitness of 0.00769.
